Reference: article PMC4798592, “A Surfactant-Induced Functional Modulation of a Global Virulence Regulator from Staphylococcus aureus” (PLoS ONE, 2016)

Biological target: the molecule itself
Assay: cross-linking; glutaraldehyde-mediated cross-linking of rSarA (10 uM) in buffer B [20 mM phosphate buffer (pH 8.0), 100 mM NaCl, 5% glycerol] or buffer C (buffer B with 0.7 mM TX-100); analysed by SDS-13.5% PAGE

B1: recombinant S. aureus SarA (rSarA) (natural protein)
chain: MAITKINDCFELLSMVTYADKLKSLIKKEFSISFEEFAVLTYISENKEKEYYLKDIINHLNYKQPQVVKAVKILSQEDYFDKKRNEHDERTVLILVNAQQRKKIESLLSRVNKRITEANNEIEL
notes: source: purified as described [8]
- stoichiometry N: 2
